“And” between values parts separate entries of the source, which are not always exact repeats. Equal values may be shown once.
Legend:
[1] = target: T1, human CD3 on Jurkat cells (human, UniProt P09693 23-182; P04234 22-171; P07766 23-207); assay: flow cytometry on Jurkat cells
T1 construct: GenBank NP_000064.1, NP_000723.1, NP_000724.1
Protocol: To quantitate CD3 binding, 2.5E5 Jurkat cells were used for each condition. A 2× stock of the cells was made by resuspending the cells to 5E6/mL by placing in 50 μL of PBS with 2% FBS. Next, the cells were diluted with an equal volume of 2× stock of the test bispecific binding molecule. The cells and antibody were co-incubated on ice for 20 min. The cells were then washed 3 times with 300 μL of FACS buffer and were resuspended in 100 μL of goat anti-human Fc-PE conjugate antibody (Invitrogen cat. #12499882) at 1:500 dilution and incubated on ice with reduced light for 20 min. The cells were then washed 3 times with 300 μL of FACS buffer and fixed with 2% paraformaldehyde for 10 min at 25° C. The cells were washed 2 times with 300 μL of FACS buffer and analyzed on a Miltenyi MACSQuant Analyzer.

[2] = target: T2, recombinant human ROR1 extracellular domain (human, UniProt Q01973 30-406); assay: ELISA, immobilised ROR1 ECD, construct titrated
T2 construct: Bought (Acro Biosystems cat. R01-H522Y); whole entry named; also called ROR1-ECD; immobilized ROR1
Protocol: A 96-well Costar-3366 plate was coated with 50 μL/well of 2 μg/mL […] (Acro Biosystems cat. #R01-H522Y) in PBS overnight at 4° C. The plate was rinsed once with PBS containing 0.05% Tween 20 (PBS-T) and blocked with 100 μL/well of 5% non-fat milk in PBS (5% M-P) for 1 h at 25° C. Antibody samples were serially diluted 2-fold using 5% M-P and were incubated for 1 h at 25° C. (50 μL/well). The plate was washed three times with PBS-T and 50 μL/well anti-human kappa, HRP conjugate (Southern Biotech cat. #2060-05) diluted 10,000-fold in 5% M-P was added for 1 h at 25° C. The plate was washed three times with PBS-T, developed with 50 μL/well 1-Step Ultra TMB-ELISA (Thermo Scientific cat. #34028). The reaction was terminated by the addition of 2 N H₂SO₄ and the A450 was determined using a Spectramax plate reader.
Next, the binding of bispecific binding molecules to ROR was characterized by ELISA using recombinantly-expressed extracellular domain of RORL. ROR was immobilized on a microtiter plate, the bispecific binding molecules were titrated, and binding was quantitated with an anti-human kappa-HRP reagent. Consistent with the cell binding data, all constructs bound ROR1 in a concentration-dependent manner (FIG. 6). Moreover, monovalent ROR1 constructs 13-15 bound less tightly than all but two of the bivalent constructs.

[3] = target: T3, soluble biotinylated human ROR1 extracellular domain (human, UniProt Q01973 30-406, biotinylated with EZ-Link Sulfo-NHS-LC-Biotin at a 1:5 molar ratio); assay: ELISA, captured construct, biotinylated ROR1 titrated
T3 construct: Acro Biosystems cat; whole entry named; also called b-ROR1; soluble b-ROR1
Protocol: To measure the binding of bispecific constructs to soluble ROR1, a 96-well Costar-3366 plate was coated with 50 μL/well of 2 μg/mL goat anti-human kappa (Southern Biotech cat. #2060-01) in PBS overnight at 4° C. The plate was rinsed once with PBS-T, blocked with 100 μL/well 5% M-P for 1 h at 25° C., rinsed once with PBS-T, and 2 μg/mL of the bispecific binding molecule was added and incubated for 1 h at 25° C. The plate was washed three times with PBS-T. Biotinylated ROR1 was diluted serially, 3-fold in 5% M-P and was incubated for 1 h at 25° C. (50 μL/well). The plate was washed three times with PBS-T. To detect the binding of b-ROR1, 50 μL/well Neutravidin-HRP (Pierce cat. #31030) diluted 1:5000 in 1% BSA-PBS was added for 1 h at 25° C. The plate was washed three times with PBS-T, then developed with 50 μL/well 1-Step Ultra TMB-ELISA (Thermo Scientific cat. #34028). The reaction was terminated by the addition of 2 N H₂SO₄ and the A450 was determined using a Spectramax plate reader.
The stronger binding observed with bivalent constructs versus monovalent constructs in cell assays and ELISAs in which the antigen is immobilized is consistent with an avidity effect. To determine if this was the case, binding to soluble monomeric ROR1 was assessed by immobilizing the bispecific binding molecules on a microtiter plate coated with goat anti-human kappa antibody and titrating biotinylated RORL. All bispecific binding molecules were active in this format (FIG. 7), and in most cases, there were no notable differences between monovalent and bivalent constructs.

[4] = target: human ROR1 on cells (human, UniProt Q01973 30-937); assay: cell-based or functional assay
Chain of human ROR1 on cells (Q01973 30-937 limits assumed): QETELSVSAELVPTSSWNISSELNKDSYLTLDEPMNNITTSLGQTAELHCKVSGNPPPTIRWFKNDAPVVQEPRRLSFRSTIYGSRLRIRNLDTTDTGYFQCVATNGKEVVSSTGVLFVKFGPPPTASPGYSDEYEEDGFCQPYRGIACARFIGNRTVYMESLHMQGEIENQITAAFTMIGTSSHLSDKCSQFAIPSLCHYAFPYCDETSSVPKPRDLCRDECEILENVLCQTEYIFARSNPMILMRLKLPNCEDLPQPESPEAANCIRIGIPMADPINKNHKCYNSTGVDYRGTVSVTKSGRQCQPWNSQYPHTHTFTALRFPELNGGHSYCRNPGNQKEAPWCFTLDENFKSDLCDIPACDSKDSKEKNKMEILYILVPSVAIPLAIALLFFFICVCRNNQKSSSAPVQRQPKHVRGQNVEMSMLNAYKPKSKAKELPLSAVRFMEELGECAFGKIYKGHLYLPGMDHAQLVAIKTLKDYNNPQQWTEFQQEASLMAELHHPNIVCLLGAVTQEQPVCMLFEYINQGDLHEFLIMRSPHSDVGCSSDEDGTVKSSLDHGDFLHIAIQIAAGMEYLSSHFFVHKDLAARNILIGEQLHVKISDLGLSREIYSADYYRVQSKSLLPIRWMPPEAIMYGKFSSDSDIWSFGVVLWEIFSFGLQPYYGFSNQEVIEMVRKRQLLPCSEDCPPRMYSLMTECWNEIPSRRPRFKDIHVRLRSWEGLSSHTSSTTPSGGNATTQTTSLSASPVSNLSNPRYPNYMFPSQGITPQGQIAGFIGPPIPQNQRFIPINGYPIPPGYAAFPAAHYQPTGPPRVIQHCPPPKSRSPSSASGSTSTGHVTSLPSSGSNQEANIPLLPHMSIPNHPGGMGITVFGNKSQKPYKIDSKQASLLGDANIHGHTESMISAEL

T1 sequence (P09693 23-182 limits assumed, chain 1 of 3): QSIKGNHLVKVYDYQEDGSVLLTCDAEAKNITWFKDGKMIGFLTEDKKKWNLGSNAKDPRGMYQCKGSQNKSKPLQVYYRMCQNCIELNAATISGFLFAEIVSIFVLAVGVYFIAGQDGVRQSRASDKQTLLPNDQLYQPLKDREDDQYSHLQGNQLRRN
T1 sequence (P04234 22-171 limits assumed, chain 2 of 3): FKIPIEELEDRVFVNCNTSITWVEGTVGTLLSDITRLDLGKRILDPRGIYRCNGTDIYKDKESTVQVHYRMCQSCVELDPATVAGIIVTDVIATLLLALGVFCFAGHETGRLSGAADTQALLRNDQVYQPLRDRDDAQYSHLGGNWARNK
T1 sequence (P07766 23-207 limits assumed, chain 3 of 3): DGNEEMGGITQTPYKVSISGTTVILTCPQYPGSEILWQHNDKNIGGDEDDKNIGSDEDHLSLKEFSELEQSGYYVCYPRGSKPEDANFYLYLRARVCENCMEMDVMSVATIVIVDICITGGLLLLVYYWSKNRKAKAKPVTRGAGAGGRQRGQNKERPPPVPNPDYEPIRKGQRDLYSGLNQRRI
T2 sequence (Q01973 30-406 limits assumed): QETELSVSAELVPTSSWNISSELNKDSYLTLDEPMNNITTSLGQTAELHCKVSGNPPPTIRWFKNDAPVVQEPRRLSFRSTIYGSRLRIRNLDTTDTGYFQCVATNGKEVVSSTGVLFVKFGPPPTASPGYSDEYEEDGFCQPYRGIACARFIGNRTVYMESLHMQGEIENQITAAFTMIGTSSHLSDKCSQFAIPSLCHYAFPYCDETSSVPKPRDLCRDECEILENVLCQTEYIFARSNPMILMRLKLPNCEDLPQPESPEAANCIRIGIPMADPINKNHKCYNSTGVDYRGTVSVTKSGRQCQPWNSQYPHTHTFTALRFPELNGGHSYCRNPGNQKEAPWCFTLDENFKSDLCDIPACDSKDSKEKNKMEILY
T3 sequence (Q01973 30-406 limits assumed): as above

| Binder | binding result [1] | Kd [2] [nM] | Kd [3] [nM] | EC50, LDH release, ROR1-transfected MEC [4] | Max. LDH Release, ROR1-transfected MEC [4] [%] |
| --- | --- | --- | --- | --- | --- |
| Bispecific construct 14 (bispecific antibody, human IgG1, kappa, anti-CD3 scFv Ab9; ROR1 arm Ab1; valency 1/1) heavy 1: not shown heavy 2: QVQLVQSGAEVKKPGASVKVSCKASGYTFTRYTMHWVRQAPGQGLEWMGYINPSRGYTNYNQKFKDRVTLTTDKSSSTAYMELSSLRSEDTAVYYCARYYDDHYSLDYWGQGTLVTVSSGGGGSGGGGSGGGGSGGGGSDIQMTQSPSSLSASVGDRVTITCSASSSVSYMNWYQQKPGKAPKRLIYDTSKLASGVPSRFSGSGSGTDFTLTISSLQPEDFATYYCQQWSSNPFTFGQGTKLEIKEPKSSDKTHTCPPCPAPEAAGAPSVFLFPPKPKDTLMISRTPEVTCVVVDVSHEDPEVKFNWYVDGVEVHNAKTKPREEQYNSTYRVVSVLTVLHQDWLNGKEYKCKVSNKALPAPIEKTISKAKGQPREPQVYTLPPSRDELTKNQVSLSCAVKGFYPSDIAVEWESNGQPENNYKTTPPVLDSDGSFFLVSKLTVDKSRWQQGNVFSCSVMHEALHNHYTQKSLSLSPGK light: DIVMTQTPLSLPVTPGEPASISCRASKSISKYLAWYQQKPGQAPRLLIYSGSTLQSGIPPRFSGSGYGTDFTLTINNIESEDAAYYFCQQHDESPYTFGEGTKVEIKRTVAAPSVFIFPPSDEQLKSGTASVVCLLNNFYPREAKVQWKVDNALQSGNSQESVTEQDSKDSTYSLSSTLTLSKADYEKHKVYACEVTHQGLSSPVTKSFNRGEC | binds | 0.408 | 0.109 | 5 ng/mL and 40 pM | 48 |
| Bispecific construct 3 (bispecific antibody, human IgG1, kappa, anti-CD3 scFv Ab10 (SP34-based); ROR1 arm Ab1; valency 2/2) heavy: not shown light: DIVMTQTPLSLPVTPGEPASISCRASKSISKYLAWYQQKPGQAPRLLIYSGSTLQSGIPPRFSGSGYGTDFTLTINNIESEDAAYYFCQQHDESPYTFGEGTKVEIKRTVAAPSVFIFPPSDEQLKSGTASVVCLLNNFYPREAKVQWKVDNALQSGNSQESVTEQDSKDSTYSLSSTLTLSKADYEKHKVYACEVTHQGLSSPVTKSFNRGEC | binds | 0.233 | 0.147 | – | – |
| Bispecific construct 15 (bispecific antibody, human IgG1, kappa, anti-CD3 scFv Ab10 (SP34-based); ROR1 arm Ab1; valency 1/1) heavy 1: not shown heavy 2: EVQLVESGGGLVQPGGSLRLSCAASGFTFNTYAMNWVRQAPGKGLEWVARIRSKYNNYATYYADSVKGRFTISRDDSKNTLYLQMNSLRAEDTAVYYCVRHGNFGNSYVSYFAYWGQGTTVTVSSGGGGSGGGGSGGGGSGGGGSEIVVTQSPATLSVSPGERATLSCRSSTGAVTAANYANWVQEKPGQAFRGLIGGANKRAPGVPARFSGSLSGDEATLTISSLQSEDFAVYYCALFYSNLWVFGQGTKLEIKEPKSSDKTHTCPPCPAPEAAGAPSVFLFPPKPKDTLMISRTPEVTCVVVDVSHEDPEVKFNWYVDGVEVHNAKTKPREEQYNSTYRVVSVLTVLHQDWLNGKEYKCKVSNKALPAPIEKTISKAKGQPREPQVYTLPPSRDELTKNQVSLSCAVKGFYPSDIAVEWESNGQPENNYKTTPPVLDSDGSFFLVSKLTVDKSRWQQGNVFSCSVMHEALHNHYTQKSLSLSPGK light: DIVMTQTPLSLPVTPGEPASISCRASKSISKYLAWYQQKPGQAPRLLIYSGSTLQSGIPPRFSGSGYGTDFTLTINNIESEDAAYYFCQQHDESPYTFGEGTKVEIKRTVAAPSVFIFPPSDEQLKSGTASVVCLLNNFYPREAKVQWKVDNALQSGNSQESVTEQDSKDSTYSLSSTLTLSKADYEKHKVYACEVTHQGLSSPVTKSFNRGEC | binds | 0.301 | 0.157 | – | – |

Now those with a lower Kd [2], led by results:

| binding result [1] | Kd [2] [nM] | Kd [3] [nM] | EC50, LDH release, ROR1-transfected MEC [4] | Max. LDH Release, ROR1-transfected MEC [4] [%] | Binder |
| --- | --- | --- | --- | --- | --- |
| binds | 0.144 | 0.094 | – | – | Bispecific construct 10 (bispecific antibody, human IgG1, kappa, disulfide-stabilized anti-CD3 scFv Ab8; ROR1 arm Ab1; valency 2/2) heavy: not shown light: DIVMTQTPLSLPVTPGEPASISCRASKSISKYLAWYQQKPGQAPRLLIYSGSTLQSGIPPRFSGSGYGTDFTLTINNIESEDAAYYFCQQHDESPYTFGEGTKVEIKRTVAAPSVFIFPPSDEQLKSGTASVVCLLNNFYPREAKVQWKVDNALQSGNSQESVTEQDSKDSTYSLSSTLTLSKADYEKHKVYACEVTHQGLSSPVTKSFNRGECGGGGSGGGGSQVQLVQSGGGVVQPGRSLRLSCKASGYTFTRYTMHWVRQAPGKCLEWIGYINPSRGYTNYNQKVKDRFTISRDNSKNTLYLQMDSLRAEDTAVYYCARYYDDHYSLDYWGQGTTVTVSSGGGGSGGGGSGGGGSGGGGSDIQMTQSPSSLSASVGDRVTITCSASSSVSYMNWYQQKPGKAPKRWIYDTSKLASGVPSRFSGSGSGTDFTFTISSLQPEDIATYYCQQWSSNPFTFGCGTKLEIK |
| binds | 0.116 | 0.086 | – | – | Bispecific construct 12 (bispecific antibody, human IgG1, kappa, disulfide-stabilized anti-CD3 scFv Ab10; ROR1 arm Ab1; valency 2/2) heavy: not shown light: DIVMTQTPLSLPVTPGEPASISCRASKSISKYLAWYQQKPGQAPRLLIYSGSTLQSGIPPRFSGSGYGTDFTLTINNIESEDAAYYFCQQHDESPYTFGEGTKVEIKRTVAAPSVFIFPPSDEQLKSGTASVVCLLNNFYPREAKVQWKVDNALQSGNSQESVTEQDSKDSTYSLSSTLTLSKADYEKHKVYACEVTHQGLSSPVTKSFNRGECGGGGSGGGGSEVQLVESGGGLVQPGGSLRLSCAASGFTFNTYAMNWVRQAPGKCLEWVARIRSKYNNYATYYADSVKGRFTISRDDSKNTLYLQMNSLRAEDTAVYYCVRHGNFGNSYVSYFAYWGQGTTVTVSSGGGGSGGGGSGGGGSGGGGSEIVVTQSPATLSVSPGERATLSCRSSTGAVTAANYANWVQEKPGQAFRGLIGGANKRAPGVPARFSGSLSGDEATLTISSLQSEDFAVYYCALFYSNLWVFGCGTKLEIK |
| binds | 0.033 | 0.082 | – | – | Bispecific construct 6 (bispecific antibody, human IgG1, kappa, disulfide-stabilized anti-CD3 scFv Ab10; ROR1 arm Ab1; valency 2/2) heavy: not shown light: DIVMTQTPLSLPVTPGEPASISCRASKSISKYLAWYQQKPGQAPRLLIYSGSTLQSGIPPRFSGSGYGTDFTLTINNIESEDAAYYFCQQHDESPYTFGEGTKVEIKRTVAAPSVFIFPPSDEQLKSGTASVVCLLNNFYPREAKVQWKVDNALQSGNSQESVTEQDSKDSTYSLSSTLTLSKADYEKHKVYACEVTHQGLSSPVTKSFNRGEC |
| binds | 0.092 | 0.073 | – | – | Bispecific construct 11 (bispecific antibody, human IgG1, kappa, disulfide-stabilized anti-CD3 scFv Ab9; ROR1 arm Ab1; valency 2/2) heavy: not shown light: DIVMTQTPLSLPVTPGEPASISCRASKSISKYLAWYQQKPGQAPRLLIYSGSTLQSGIPPRFSGSGYGTDFTLTINNIESEDAAYYFCQQHDESPYTFGEGTKVEIKRTVAAPSVFIFPPSDEQLKSGTASVVCLLNNFYPREAKVQWKVDNALQSGNSQESVTEQDSKDSTYSLSSTLTLSKADYEKHKVYACEVTHQGLSSPVTKSFNRGECGGGGSGGGGSQVQLVQSGAEVKKPGASVKVSCKASGYTFTRYTMHWVRQAPGQCLEWMGYINPSRGYTNYNQKFKDRVTLTTDKSSSTAYMELSSLRSEDTAVYYCARYYDDHYSLDYWGQGTLVTVSSGGGGSGGGGSGGGGSGGGGSDIQMTQSPSSLSASVGDRVTITCSASSSVSYMNWYQQKPGKAPKRLIYDTSKLASGVPSRFSGSGSGTDFTLTISSLQPEDFATYYCQQWSSNPFTFGCGTKLEIK |
